Measurements: patent publication US20160222395

Columns and labels:
[1] = system: ALS2_T1 TALE nuclease right subunit (synthetic construct); experiment: cell_activity; settings: yeast beta-galactosidase recombination assay, 37 C, as pair with left subunit; 0.86 (0.02) at 30 C; also cleaves in N. benthamiana leaves (T7EI)
[2] = system: ALS2_T1 TALE nuclease left subunit (synthetic construct); experiment: cell_activity; settings: yeast beta-galactosidase recombination assay, 37 C, as pair with right subunit; 0.86 (0.02) at 30 C; also cleaves in N. benthamiana leaves (T7EI)

Row | Sequence | activity (relative to I-SceI (max 1.0)) [1] | activity (relative to I-SceI (max 1.0)) [2]
1 | ACAGTACGACCCAGTCT (double strand) [ALS2_T1 right target half-site] | 0.97 | 
2 | TAGCTTGTTCCACATTT (double strand) [ALS2_T1 left target half-site] |  | 0.97
